Assay results: article PMC2862694 (Cellular signalling, 2010)

B1: Gαi/q chimera (other)
chain: MGCTLSAEDKAAVERSKMIDRNLREDGERSRRELKLLLLGTGESGKSTFIKQMRIIHGSGYSDEDKRGFTKLVYQNIFTAMQAMIRAMDTLKIPYKYEHNKAHAQLVREVDVEKVSAFENPYVDAIKSLWNDPGIQECYDRRREYQLSDSTKYYLNDLDRVADPSYLPTQQDVLRVRVPTTGIIEYPFDLQSVIFRMVDVGGQRSERRKWIHCFENVTSIMFLVALSEYDQVLVESDNENRMEESKALFRTIITYPWFQNSSVILFLNKKDLLEEKIMYSHLVDYFPEYDGPQRDAQAAREFILKMFVDLNPDSDKIIYSHFTCATDTENIRFVFAAVKDTILQLNLKEYNLV
modifications: biotinylated (bead-bound in FCPIA)
B2: Gαi/q bound to p63RhoGEF DH/PH wild type (complex)
chain 1: B1 chain
chain 2: not shown
modifications: biotinylated (bead-bound)
B3: p63RhoGEF DH domain (residues 149-338) (domain or fragment)
chain: not shown
B4: p63RhoGEF DH/PH-G340I (domain or fragment)
chain: not shown
B5: p63RhoGEF DH/PH-M336S (domain or fragment)
chain: not shown
B6: p63RhoGEF DH/PH-R341E (domain or fragment)
chain: not shown
modifications: Alexa Fluor 532 label in direct binding to RhoA; unlabeled as competitor
B7: p63RhoGEF DH/PH-P330L (domain or fragment)
chain: not shown
B8: p63RhoGEF DH/PH-R341A (domain or fragment)
chain: not shown
modifications: Alexa Fluor 532 label in direct binding to RhoA; unlabeled as competitor
B9: p63RhoGEF DH/PH-Δ(397-402) (domain or fragment)
chain: not shown

Legend:
Assay in all cases: flow cytometry protein interaction assay
[1] = molecular target: p63RhoGEF DH/PH 5A alanine insertion mutant (human, UniProt Q86VW2-1 149-502, 5A: 5 alanines inserted after Thr338)
[2] = molecular target: p63RhoGEF DH/PH 4A alanine insertion mutant (human, UniProt Q86VW2-1 149-502, 4A: 4 alanines inserted after Thr338)
[3] = molecular target: p63RhoGEF DH/PH 6A alanine insertion mutant (human, UniProt Q86VW2-1 149-502, 6A: 6 alanines inserted after Thr338)
[4] = molecular target: p63RhoGEF DH/PH 3A alanine insertion mutant (human, UniProt Q86VW2-1 149-502, 3A: 3 alanines inserted after Thr338)
[5] = molecular target: p63RhoGEF DH/PH 7A alanine insertion mutant (human, UniProt Q86VW2-1 149-502, 7A: 7 alanines inserted after Thr338)
[6] = molecular target: p63RhoGEF DH/PH 1A alanine insertion mutant (human, UniProt Q86VW2-1 149-502, 1A: 1 alanine inserted after Thr338)
[7] = molecular target: p63RhoGEF DH/PH 2A alanine insertion mutant (human, UniProt Q86VW2-1 149-502, 2A: 2 alanines inserted after Thr338)
[8] = molecular target: T1, RhoA (UniProt P61586 1-193, biotinylated where bead-bound; Alexa Fluor 532 label where AF-labeled)
T1 sequence (P61586 whole entry): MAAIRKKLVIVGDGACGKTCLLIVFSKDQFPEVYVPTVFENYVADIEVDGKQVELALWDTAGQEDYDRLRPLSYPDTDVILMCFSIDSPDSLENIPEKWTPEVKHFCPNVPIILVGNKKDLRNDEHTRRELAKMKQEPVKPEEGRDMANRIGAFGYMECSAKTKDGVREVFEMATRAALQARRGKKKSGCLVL

[9] = molecular target: T1, RhoA; remark: listed apart in the source
[10] = molecular target: B1

Binder	Ki [9] [nM]	Ki [10] [nM]	further results
B1			binding result [1]: binds; binding result [2]: binds; binding result [3]: binds; binding result [4]: binds; binding result [5]: binds; binding result [6]: binds; binding result [7]: binds
B2			Kd [8]: 17 nM
B3	300		
B4	1200	670	
B5		68	
B6	94	120	
B7		40	
B8	190	75	
B9		48	
